Here are results for one molecule from patent US20140193915, “COMPOSITIONS AND METHODS FOR CUSTOM SITE-SPECIFIC DNA RECOMBINASES” (Monsanto Technology, LLC, published 2014).

Data set [1] addresses T1, pN-TALER IV-14 (synthetic).
T1 chain: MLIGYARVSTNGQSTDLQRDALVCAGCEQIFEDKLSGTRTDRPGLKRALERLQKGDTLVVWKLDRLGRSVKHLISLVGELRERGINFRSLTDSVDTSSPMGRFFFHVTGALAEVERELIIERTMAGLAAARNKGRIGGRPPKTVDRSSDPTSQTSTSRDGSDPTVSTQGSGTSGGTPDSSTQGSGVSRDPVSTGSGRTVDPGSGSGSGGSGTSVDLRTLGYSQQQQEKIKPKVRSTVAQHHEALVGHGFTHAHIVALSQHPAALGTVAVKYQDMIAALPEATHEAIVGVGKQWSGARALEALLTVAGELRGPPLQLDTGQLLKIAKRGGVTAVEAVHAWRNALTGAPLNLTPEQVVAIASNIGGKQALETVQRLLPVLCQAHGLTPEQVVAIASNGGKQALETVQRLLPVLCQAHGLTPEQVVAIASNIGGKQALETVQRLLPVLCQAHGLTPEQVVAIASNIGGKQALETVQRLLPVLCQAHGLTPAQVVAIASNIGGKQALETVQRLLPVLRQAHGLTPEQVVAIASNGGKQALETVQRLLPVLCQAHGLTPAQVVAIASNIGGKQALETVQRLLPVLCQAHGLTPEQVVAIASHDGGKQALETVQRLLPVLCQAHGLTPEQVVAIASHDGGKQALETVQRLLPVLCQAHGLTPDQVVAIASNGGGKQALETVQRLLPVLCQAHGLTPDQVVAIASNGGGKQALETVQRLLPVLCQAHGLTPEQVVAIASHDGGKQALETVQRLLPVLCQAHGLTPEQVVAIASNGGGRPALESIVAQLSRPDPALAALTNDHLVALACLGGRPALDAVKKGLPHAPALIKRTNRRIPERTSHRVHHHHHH
In words: cell_activity; E. coli. On the procedure: (§1) To test for recombination, E. coli DH5alpha cells were co-transformed with different combinations of TALER expression construct and TALER reporter construct pairs (Tables 6 and 7). The N-TALER expression and reporter constructs were in an approximate 1:1 mass ratio during the transformation. The co-transformed bacteria were plated on media with chloramphenicol, kanamycin, and X-gal then incubated at 37° C. for 18 to 36 hours. Control samples consisted of transformations using the reporter construct alone. Control transformants were similarly plated. The bacterial transformation protocol was either heat shock or electroporation per standard molecular biology techniques.
(§2) The N-TALER expression constructs representing the N-TALER chimeras with varying linker lengths were co-transformed with N-TALER reporter constructs with TALER central sequence lengths of 18, 20, 24, 30, 40, and 50 bp (Table 13). […] Recombination did occur, but was less efficient with the pN-TALER IV-14 (linker length of 71 amino acids) with each of the N-TALER reporters tested.

Data set [2] concerns the target T2, pN-TALER IV-12 (synthetic).
T2 chain: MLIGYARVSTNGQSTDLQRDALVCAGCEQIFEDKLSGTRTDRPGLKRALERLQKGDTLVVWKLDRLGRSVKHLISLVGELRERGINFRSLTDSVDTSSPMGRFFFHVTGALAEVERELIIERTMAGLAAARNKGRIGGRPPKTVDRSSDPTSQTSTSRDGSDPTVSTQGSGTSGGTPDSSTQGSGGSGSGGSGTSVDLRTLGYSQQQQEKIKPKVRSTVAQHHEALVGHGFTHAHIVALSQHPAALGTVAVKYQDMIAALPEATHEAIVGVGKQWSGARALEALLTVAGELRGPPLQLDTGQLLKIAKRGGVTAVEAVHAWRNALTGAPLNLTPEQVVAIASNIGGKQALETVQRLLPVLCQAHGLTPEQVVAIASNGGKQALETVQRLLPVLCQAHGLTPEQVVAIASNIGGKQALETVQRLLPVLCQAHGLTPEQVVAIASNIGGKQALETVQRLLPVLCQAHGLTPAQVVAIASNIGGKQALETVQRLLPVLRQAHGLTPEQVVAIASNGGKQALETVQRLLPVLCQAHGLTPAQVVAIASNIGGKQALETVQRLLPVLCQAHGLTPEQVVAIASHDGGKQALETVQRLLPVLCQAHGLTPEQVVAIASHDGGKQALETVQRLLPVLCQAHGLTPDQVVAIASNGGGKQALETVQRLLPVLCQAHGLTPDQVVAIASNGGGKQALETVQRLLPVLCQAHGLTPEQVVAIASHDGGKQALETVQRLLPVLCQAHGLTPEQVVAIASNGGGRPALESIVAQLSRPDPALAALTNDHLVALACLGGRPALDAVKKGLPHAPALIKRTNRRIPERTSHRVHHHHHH
In words: cell_activity; E. coli. On the procedure: as §1, §2

B1: Gin20TALE+0 (dsDNA)
DNA 1: AGAAGGTATTTATATCCAAAACCATGGTTTACAGTATAAATACCTTCT
DNA 2: AGAAGGTATTTATACTGTAAACCATGGTTTTGGATATAAATACCTTCT
With B1, the results for the activity in data set [1] and in data set [2] were 3 score and 1 score, respectively.
